The supplement of paper PMC10065799, “High-throughput profiling of sequence recognition by tyrosine kinases and SH2 domains using bacterial peptide display” (eLife, 2023)

Experiments:
Grb2 SH2 = Grb2 SH2 (UniProt P62993); assay: SH2 binding enrichment of the phosphorylated peptide, bacterial display (enrichment ratio); higher = better substrate or ligand; peptides without Tyr show the background
SHP2-C SH2 = assay: as above
c-Src SH2 = assay: as above
EPHB2 = EPHB2 (UniProt P29323); assay: phosphorylation enrichment, bacterial display (enrichment ratio); higher = better substrate or ligand; peptides without Tyr show the background
c-Abl (mouse) = assay: as above
FGFR3 = FGFR3 (UniProt P22607); assay: as above
Sequence of FGFR3 (P22607 whole entry, looked up): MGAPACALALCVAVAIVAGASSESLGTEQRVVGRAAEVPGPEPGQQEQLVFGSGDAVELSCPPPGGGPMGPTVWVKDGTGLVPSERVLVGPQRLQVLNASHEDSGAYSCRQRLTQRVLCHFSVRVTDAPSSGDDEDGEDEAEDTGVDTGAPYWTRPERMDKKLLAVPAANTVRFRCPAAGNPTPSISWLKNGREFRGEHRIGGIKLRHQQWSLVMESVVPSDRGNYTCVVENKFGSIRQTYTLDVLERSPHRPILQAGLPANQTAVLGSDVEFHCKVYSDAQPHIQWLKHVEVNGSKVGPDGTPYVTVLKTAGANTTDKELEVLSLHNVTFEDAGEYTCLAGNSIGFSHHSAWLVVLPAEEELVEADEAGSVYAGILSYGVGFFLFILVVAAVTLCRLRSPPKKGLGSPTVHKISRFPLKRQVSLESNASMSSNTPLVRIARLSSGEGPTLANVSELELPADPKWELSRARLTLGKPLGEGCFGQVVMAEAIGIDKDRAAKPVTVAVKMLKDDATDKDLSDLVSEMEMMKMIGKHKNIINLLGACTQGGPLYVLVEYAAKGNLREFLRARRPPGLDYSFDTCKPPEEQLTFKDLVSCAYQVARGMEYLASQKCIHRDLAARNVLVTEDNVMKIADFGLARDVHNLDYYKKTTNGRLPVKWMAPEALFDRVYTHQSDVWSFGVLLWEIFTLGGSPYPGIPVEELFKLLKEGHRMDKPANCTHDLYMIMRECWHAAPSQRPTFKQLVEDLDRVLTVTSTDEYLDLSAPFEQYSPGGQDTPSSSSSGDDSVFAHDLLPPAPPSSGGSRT

Fyn = Fyn (UniProt P06241); assay: as above
Jak2 = Jak2 (UniProt O60674); assay: as above
Sequence of Jak2 (O60674 whole entry, looked up): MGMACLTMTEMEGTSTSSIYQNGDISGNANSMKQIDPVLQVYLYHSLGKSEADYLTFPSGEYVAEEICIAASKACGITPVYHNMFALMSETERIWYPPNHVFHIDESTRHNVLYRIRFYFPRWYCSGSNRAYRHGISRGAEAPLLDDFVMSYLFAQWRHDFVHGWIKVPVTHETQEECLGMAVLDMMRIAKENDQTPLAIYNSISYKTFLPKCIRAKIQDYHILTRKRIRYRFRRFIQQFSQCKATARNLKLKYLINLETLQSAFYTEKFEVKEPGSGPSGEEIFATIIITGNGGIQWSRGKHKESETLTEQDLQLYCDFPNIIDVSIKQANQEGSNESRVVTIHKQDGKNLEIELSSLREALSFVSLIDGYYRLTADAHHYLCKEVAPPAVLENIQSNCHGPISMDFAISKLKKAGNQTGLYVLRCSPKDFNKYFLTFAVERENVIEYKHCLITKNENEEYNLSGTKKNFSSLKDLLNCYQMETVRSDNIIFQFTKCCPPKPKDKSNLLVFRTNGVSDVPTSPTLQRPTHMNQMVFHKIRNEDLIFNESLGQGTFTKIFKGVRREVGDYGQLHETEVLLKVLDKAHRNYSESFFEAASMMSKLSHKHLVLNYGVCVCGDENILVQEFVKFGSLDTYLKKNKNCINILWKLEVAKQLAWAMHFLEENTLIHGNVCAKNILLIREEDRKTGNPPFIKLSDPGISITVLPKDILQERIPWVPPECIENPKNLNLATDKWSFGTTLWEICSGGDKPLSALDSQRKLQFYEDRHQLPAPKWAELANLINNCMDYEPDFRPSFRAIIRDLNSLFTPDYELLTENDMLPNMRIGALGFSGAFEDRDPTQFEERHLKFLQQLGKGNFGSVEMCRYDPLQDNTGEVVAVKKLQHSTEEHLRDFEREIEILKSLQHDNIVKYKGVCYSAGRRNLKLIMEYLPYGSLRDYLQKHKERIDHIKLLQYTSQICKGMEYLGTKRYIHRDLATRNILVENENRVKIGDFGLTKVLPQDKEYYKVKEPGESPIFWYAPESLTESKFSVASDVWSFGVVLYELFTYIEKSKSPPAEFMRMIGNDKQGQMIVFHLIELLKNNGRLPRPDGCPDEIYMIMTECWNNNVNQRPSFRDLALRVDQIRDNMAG

c-Src = assay: as above
FGFR1 = FGFR1 (UniProt P11362); assay: as above
Sequence of FGFR1 (P11362 whole entry, looked up): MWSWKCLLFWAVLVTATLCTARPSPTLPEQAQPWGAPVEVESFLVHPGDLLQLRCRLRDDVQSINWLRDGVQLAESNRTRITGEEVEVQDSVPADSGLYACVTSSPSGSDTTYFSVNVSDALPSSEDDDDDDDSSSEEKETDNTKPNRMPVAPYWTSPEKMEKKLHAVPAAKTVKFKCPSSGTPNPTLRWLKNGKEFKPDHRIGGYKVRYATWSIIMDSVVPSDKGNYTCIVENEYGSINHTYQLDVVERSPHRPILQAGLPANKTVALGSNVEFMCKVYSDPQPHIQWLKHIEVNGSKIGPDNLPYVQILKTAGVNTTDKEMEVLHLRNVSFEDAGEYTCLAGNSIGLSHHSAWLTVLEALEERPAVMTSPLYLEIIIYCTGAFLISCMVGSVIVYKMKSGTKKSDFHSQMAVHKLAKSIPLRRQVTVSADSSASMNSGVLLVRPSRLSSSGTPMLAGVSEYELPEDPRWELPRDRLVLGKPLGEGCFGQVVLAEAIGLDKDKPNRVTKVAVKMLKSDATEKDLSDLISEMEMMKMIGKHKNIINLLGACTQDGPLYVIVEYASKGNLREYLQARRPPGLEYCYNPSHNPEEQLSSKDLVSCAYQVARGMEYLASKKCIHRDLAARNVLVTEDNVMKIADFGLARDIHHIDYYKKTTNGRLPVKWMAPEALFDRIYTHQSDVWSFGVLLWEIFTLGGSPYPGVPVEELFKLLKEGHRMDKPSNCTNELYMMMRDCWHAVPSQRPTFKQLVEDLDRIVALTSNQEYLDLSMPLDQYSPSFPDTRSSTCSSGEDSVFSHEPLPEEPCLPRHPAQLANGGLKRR

Hck = Hck (UniProt P08631); assay: as above
Sequence of Hck (P08631 whole entry, looked up): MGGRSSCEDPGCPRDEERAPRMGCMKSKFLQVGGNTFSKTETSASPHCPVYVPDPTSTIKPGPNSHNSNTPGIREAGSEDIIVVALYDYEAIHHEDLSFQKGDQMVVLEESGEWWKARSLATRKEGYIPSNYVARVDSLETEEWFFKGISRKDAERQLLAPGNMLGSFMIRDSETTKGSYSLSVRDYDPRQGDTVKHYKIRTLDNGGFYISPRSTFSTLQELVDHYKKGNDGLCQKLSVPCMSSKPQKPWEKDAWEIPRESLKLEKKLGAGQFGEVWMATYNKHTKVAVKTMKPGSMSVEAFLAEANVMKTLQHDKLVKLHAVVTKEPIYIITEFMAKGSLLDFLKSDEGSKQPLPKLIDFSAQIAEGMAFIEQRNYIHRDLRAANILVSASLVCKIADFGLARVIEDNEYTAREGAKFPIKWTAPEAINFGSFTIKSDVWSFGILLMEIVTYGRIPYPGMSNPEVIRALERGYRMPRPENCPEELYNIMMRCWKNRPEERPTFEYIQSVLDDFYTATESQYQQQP

Fes = Fes (UniProt P07332); assay: as above
Sequence of Fes (P07332 whole entry, looked up): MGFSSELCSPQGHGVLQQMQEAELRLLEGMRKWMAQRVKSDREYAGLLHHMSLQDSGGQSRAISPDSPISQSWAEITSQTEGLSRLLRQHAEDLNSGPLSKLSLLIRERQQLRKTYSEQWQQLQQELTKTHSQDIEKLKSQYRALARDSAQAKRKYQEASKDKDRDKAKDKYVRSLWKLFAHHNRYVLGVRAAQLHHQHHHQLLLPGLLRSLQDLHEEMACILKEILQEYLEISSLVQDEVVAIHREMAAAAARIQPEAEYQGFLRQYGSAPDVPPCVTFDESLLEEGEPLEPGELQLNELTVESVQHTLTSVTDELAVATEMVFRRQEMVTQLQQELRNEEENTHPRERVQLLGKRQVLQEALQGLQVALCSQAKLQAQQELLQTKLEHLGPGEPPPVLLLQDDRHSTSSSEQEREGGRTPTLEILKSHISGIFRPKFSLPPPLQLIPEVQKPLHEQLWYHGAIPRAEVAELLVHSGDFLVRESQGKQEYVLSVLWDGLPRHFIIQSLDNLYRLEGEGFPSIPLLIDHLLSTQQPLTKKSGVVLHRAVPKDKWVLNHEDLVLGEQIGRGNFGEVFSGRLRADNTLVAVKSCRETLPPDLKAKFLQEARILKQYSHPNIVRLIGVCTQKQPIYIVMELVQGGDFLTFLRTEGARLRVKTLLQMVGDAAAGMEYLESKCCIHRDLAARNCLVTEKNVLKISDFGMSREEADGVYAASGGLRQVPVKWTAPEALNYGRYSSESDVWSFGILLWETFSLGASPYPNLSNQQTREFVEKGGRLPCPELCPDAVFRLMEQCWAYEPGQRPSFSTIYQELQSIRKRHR

AncSZ = assay: as above
Fer (mouse) = assay: as above
EPHB1 = EPHB1 (UniProt P54762); assay: as above
Sequence of EPHB1 (P54762 whole entry, looked up): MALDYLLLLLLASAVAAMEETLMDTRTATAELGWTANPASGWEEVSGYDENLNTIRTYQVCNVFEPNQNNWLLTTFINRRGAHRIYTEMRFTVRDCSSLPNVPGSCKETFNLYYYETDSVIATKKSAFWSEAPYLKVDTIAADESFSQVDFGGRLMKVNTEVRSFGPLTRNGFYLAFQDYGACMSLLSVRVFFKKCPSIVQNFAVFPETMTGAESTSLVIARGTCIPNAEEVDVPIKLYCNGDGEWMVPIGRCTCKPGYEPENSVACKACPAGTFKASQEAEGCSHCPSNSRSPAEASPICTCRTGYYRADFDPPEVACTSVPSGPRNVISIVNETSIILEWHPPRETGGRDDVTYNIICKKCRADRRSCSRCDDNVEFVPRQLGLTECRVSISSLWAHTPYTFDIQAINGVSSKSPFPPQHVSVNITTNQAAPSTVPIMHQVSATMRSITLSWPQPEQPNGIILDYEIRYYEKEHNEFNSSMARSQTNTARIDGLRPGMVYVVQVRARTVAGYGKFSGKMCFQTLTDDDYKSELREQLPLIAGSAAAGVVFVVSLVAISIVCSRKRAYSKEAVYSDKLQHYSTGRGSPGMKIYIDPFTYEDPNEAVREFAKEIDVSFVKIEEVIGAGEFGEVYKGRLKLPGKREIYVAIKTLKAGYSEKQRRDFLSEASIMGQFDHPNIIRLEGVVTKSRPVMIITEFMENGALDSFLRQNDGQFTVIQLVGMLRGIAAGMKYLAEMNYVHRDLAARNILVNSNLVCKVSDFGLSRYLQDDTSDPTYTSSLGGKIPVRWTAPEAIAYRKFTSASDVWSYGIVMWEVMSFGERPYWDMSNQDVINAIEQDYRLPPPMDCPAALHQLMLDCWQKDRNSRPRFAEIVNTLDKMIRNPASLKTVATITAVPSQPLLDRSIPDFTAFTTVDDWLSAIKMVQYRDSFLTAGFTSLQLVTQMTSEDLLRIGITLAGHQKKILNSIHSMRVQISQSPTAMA

MERTK = MERTK (UniProt Q12866); assay: as above
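For SH2 binding enrichment of the phosphorylated peptide, bacterial display in this document: peptide library displayed on the E. coli surface as eCPX fusions, selected cells deep-sequenced, score is each peptide's frequency after selection divided by its frequency in the input.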
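For phosphorylation enrichment, bacterial display in this document: 11-residue human phosphosite peptides and single-mutation variants displayed on the E. coli surface, counted by deep sequencing, each peptide's frequency after selection divided by its frequency in the unselected input library; frequency after pTyr selection over input frequency; kinase dosed for 20-30% of maximal phosphorylation in three min.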

| Sequence | SH2 binding enrichment (Grb2 SH2) | SH2 binding enrichment (SHP2-C SH2) | SH2 binding enrichment (c-Src SH2) | phosphorylation enrichment (EPHB2) | phosphorylation enrichment (c-Abl (mouse)) | phosphorylation enrichment (FGFR3) | phosphorylation enrichment (Fyn) | phosphorylation enrichment (Jak2) | phosphorylation enrichment (c-Src) | phosphorylation enrichment (FGFR1) | phosphorylation enrichment (Hck) | phosphorylation enrichment (Fes) | phosphorylation enrichment (AncSZ) | phosphorylation enrichment (Fer (mouse)) | phosphorylation enrichment (EPHB1) | phosphorylation enrichment (MERTK) |
| --- | --- | --- | --- | --- | --- | --- | --- | --- | --- | --- | --- | --- | --- | --- | --- | --- |
| NKPTVCGVSPN [ABL1_Y226_Y226C] | 0.952 | 0.841 | 0.559 | 0.536 | 0.996 | 0.589 | 0.439 | 0.759 | 0.5 | 0.526 | 0.404 | 0.919 | 0.655 | 0.441 | 0.476 | 0.467 |
| NKYTTYLPRLP [C9orf24_Y126] | 0.905 | 0.776 | 0.991 | 0.386 | 0.625 | 0.418 | 0.51 | 0.706 | 0.616 | 0.402 | 0.714 | 0.684 | 0.575 | 0.38 | 0.454 | 0.483 |
| NLFIEYPTGSG [IRF2BPL_Y423_K418N] | 0.681 | 0.551 | 0.399 | 0.548 | 0.95 | 0.7 | 0.568 | 0.828 | 0.56 | 0.582 | 0.497 | 1.02 | 1.14 | 0.639 | 0.504 | 0.519 |
| NNPAYYVLEGV [INPPL1_Y987] | 0.803 | 1.02 | 3.65 | 0.69 | 0.711 | 13.1 | 1.65 | 4.89 | 1.63 | 15.9 | 1.11 | 0.997 | 1.15 | 0.525 | 0.764 | 9.04 |
| NQDRTYFERVR [SPEN_Y632_S635R_YF] | 0.857 | 0.547 | 0.572 | 0.411 | 0.538 | 0.522 | 0.419 | 0.601 | 0.567 | 0.421 | 0.812 | 0.648 | 0.607 | 0.401 | 0.473 | 0.377 |
| NRDNTYNRVSE [FGA_Y127] | 0.758 | 0.775 | 1.59 | 0.407 | 0.762 | 0.469 | 0.425 | 0.678 | 0.405 | 0.38 | 0.457 | 0.728 | 0.603 | 0.395 | 0.472 | 0.329 |
| NRLTDYFEPLL [BBS10_Y536_YF] | 1.02 | 0.842 | 0.711 | 1.16 | 0.675 | 4.38 | 0.755 | 0.959 | 0.406 | 6.99 | 0.548 | 0.993 | 1.71 | 0.468 | 2.54 | 0.381 |
| NSIGNYFKPWF [DHCR24_Y299_YF] | 1.05 | 5.38 | 0.899 | 5.26 | 8.06 | 1.41 | 0.45 | 7.86 | 0.458 | 1.64 | 0.492 | 0.99 | 1.03 | 0.424 | 8.66 | 4.54 |
| NTADYYDLYGG [PTPN11_Y63_G60A] | 1.05 | 0.81 | 0.782 | 14.7 | 1.13 | 15.3 | 6.09 | 3.39 | 5.99 | 16.2 | 5.89 | 1.47 | 3.44 | 1.59 | 14.9 | 3.04 |
| NTDETYCIDNE [TUBB2B_Y200] | 0.952 | 0.781 | 0.544 | 0.797 | 0.982 | 1.14 | 0.795 | 1.53 | 0.809 | 0.64 | 0.728 | 1.57 | 1.47 | 0.724 | 0.813 | 0.598 |
| NTGGYYDLYGG [PTPN11_Y63_D61G] | 0.928 | 0.871 | 5.92 | 3.74 | 0.756 | 10.8 | 8.66 | 5.82 | 5.05 | 13.3 | 8.38 | 1.18 | 1.51 | 3.33 | 1.98 | 7.92 |
| NTGVFYDLFGG [PTPN11_Y63_D61V_YF] | 0.59 | 0.766 | 0.743 | 0.986 | 0.797 | 0.638 | 3.21 | 0.958 | 4.82 | 0.455 | 2.84 | 1.12 | 0.99 | 2.86 | 0.609 | 7.01 |
| NTILLYHIMAW [GPR143_Y157_S152N] | 0.801 | 0.829 | 0.577 | 3.9 | 1.25 | 3.15 | 0.8 | 2.07 | 1.27 | 3.19 | 1.56 | 1.62 | 1.52 | 0.89 | 5.65 | 4.42 |
| NTPNAYLRVNV [ADD2_Y440_T439A] | 0.856 | 1.12 | 0.499 | 0.465 | 0.706 | 0.667 | 0.437 | 0.806 | 0.391 | 0.437 | 0.469 | 0.934 | 0.868 | 0.405 | 0.463 | 0.404 |
| NTQRPYFKGGG [TYROBP_Y111_YF] | 1.04 | 1.02 | 0.619 | 0.372 | 0.574 | 0.467 | 0.428 | 0.904 | 0.461 | 0.364 | 0.326 | 0.613 | 0.533 | 0.437 | 0.429 | 0.454 |
| NTYENYWPFYQ [GATM_Y103_K102N] | 9.03 | 1.81 | 2.78 | 22.2 | 2.79 | 12.4 | 9.01 | 5.55 | 7.27 | 14.3 | 7.34 | 4.54 | 2.72 | 8.56 | 17.2 | 9.93 |
| NVDGKYSYLKV [GRM3_Y478_G475D] | 0.752 | 1.35 | 3.85 | 0.59 | 0.557 | 0.507 | 0.444 | 0.825 | 0.432 | 0.563 | 0.554 | 0.878 | 0.705 | 0.515 | 0.569 | 0.559 |

| Sequence | SH2 binding enrichment (Grb2 SH2) | SH2 binding enrichment (SHP2-C SH2) | SH2 binding enrichment (c-Src SH2) | phosphorylation enrichment (EPHB2) | phosphorylation enrichment (c-Abl (mouse)) | phosphorylation enrichment (FGFR3) | phosphorylation enrichment (Fyn) | phosphorylation enrichment (Jak2) | phosphorylation enrichment (c-Src) | phosphorylation enrichment (FGFR1) | phosphorylation enrichment (Hck) | phosphorylation enrichment (Fes) | phosphorylation enrichment (AncSZ) | phosphorylation enrichment (Fer (mouse)) | phosphorylation enrichment (EPHB1) | phosphorylation enrichment (MERTK) |
| --- | --- | --- | --- | --- | --- | --- | --- | --- | --- | --- | --- | --- | --- | --- | --- | --- |
| NWGSPYKSDGC [ZNF347_Y261_N264D] | 0.768 | 0.587 | 0.405 | 0.51 | 0.723 | 0.522 | 0.4 | 0.673 | 0.397 | 0.562 | 0.442 | 0.864 | 0.864 | 0.394 | 0.486 | 0.345 |
| PADCRYFTFPQ [GAMT_Y222_A224T_YF] | 1.33 | 1.78 | 2.07 | 0.483 | 0.944 | 1.09 | 0.61 | 2.88 | 2.58 | 1.2 | 0.761 | 1.53 | 1.1 | 0.68 | 0.613 | 1.66 |
| PATINYLFEKG [NDUFS8_Y84_P85L] | 1.05 | 0.663 | 0.611 | 0.529 | 0.293 | 0.963 | 0.357 | 0.703 | 0.435 | 0.796 | 0.562 | 0.891 | 0.754 | 0.43 | 0.541 | 0.36 |
| PDGHEYIFVDP [PDGFRA_Y572_YF] | 0.662 | 0.761 | 1.65 | 0.719 | 0.466 | 1.99 | 0.712 | 0.73 | 0.495 | 2.86 | 0.54 | 1.04 | 2.01 | 0.576 | 0.644 | 0.311 |
| PDMHSYVVRYN [GRIN2D_Y732_M733V] | 0.812 | 0.825 | 0.544 | 0.723 | 0.694 | 0.844 | 0.554 | 1.04 | 0.603 | 0.56 | 0.721 | 1.13 | 1.13 | 0.434 | 0.787 | 0.413 |
| PFDAEYGGGGG [AKR1B10_Y316_N313D] | 0.747 | 0.798 | 0.378 | 1.48 | 1.31 | 1.09 | 1.13 | 1.66 | 0.918 | 1.16 | 1.14 | 1.5 | 1.81 | 0.784 | 0.843 | 0.783 |
| PFTDPYFDFEI [ZC3H18_Y371_A368T_YF] | 1.14 | 0.815 | 0.649 | 0.64 | 1.03 | 12.4 | 2.06 | 2.84 | 5.82 | 16.2 | 1.17 | 1.88 | 2.52 | 2 | 0.835 | 0.898 |
| PGIRMYQVQYN [LRFN1_Y454] | 1.22 | 1.37 | 1.02 | 0.92 | 0.995 | 0.863 | 0.815 | 1.24 | 0.727 | 0.67 | 0.503 | 1.39 | 1.06 | 0.446 | 0.93 | 0.764 |
| PGNIVYSSLCG [BCOR_Y90] | 0.875 | 1.51 | 0.579 | 0.987 | 1.83 | 1.02 | 3.13 | 1.65 | 5.73 | 0.892 | 5.25 | 1.62 | 1.38 | 1.18 | 0.914 | 1.6 |
| PHQTIYGALMI [FGF23_Y70_S71G] | 0.75 | 0.599 | 0.341 | 0.711 | 1.36 | 0.838 | 10.6 | 0.721 | 5.96 | 0.57 | 7.87 | 1.07 | 0.849 | 3.41 | 0.679 | 0.796 |
| PIDLYYLMDLS [ITGB2_Y131] | 0.922 | 0.911 | 0.67 | 12.5 | 1.09 | 18.6 | 8.8 | 8.57 | 6.67 | 17.4 | 7.58 | 4.2 | 6.05 | 9.5 | 13.5 | 13.3 |
| PIPAAYNRFDQ [CDC73_Y290_YF] | 0.792 | 0.648 | 0.579 | 0.426 | 0.357 | 0.643 | 0.451 | 0.833 | 0.303 | 0.456 | 0.446 | 0.778 | 0.513 | 0.485 | 0.643 | 0.509 |
| PKDSAYVTWEP | 0.938 | 0.675 | 0.487 | 0.798 | 1.16 | 1.45 | 2.17 | 1.36 | 2.02 | 2.14 | 2.38 | 1.4 | 1.66 | 2.5 | 1.03 | 1.39 |
| PKGTGCIKTEL [STAT1_Y701_Y701C] | 0.772 | 0.73 | 0.586 | 0.54 | 1.04 | 0.759 | 0.443 | 0.808 | 0.457 | 0.558 | 0.689 | 1.27 | 1.05 | 0.726 | 0.774 | 0.74 |
| PLDEEYFTLQI [TP53_Y327_G325E] | 0.891 | 1.12 | 0.551 | 0.888 | 1.13 | 4.54 | 1.91 | 2.57 | 2.69 | 4.65 | 1.2 | 2.25 | 2.96 | 0.691 | 1.02 | 0.941 |
| PLDGEYFTLRI [TP53_Y327_Q331R] | 0.767 | 0.539 | 0.596 | 1.04 | 1.93 | 5 | 2.55 | 2.88 | 3.13 | 6.1 | 1.76 | 2.19 | 2.77 | 0.971 | 1.04 | 0.45 |
